In patent US20140148381A1 (INDIANA UNIVERSITY RESEARCH AND TECHNOLOGY, published 2014):

Legend:
[1] = target: HBV Cp149-WT (wild type HBV core protein assembly domain, N-terminal first 149 residues), dimer (Hepatitis B virus, adyw strain); assay: SEC of assembly reactions, 100 mM NaCl, 23° C.
[2] = target: HBV Cp149-WT (wild type HBV core protein assembly domain, N-terminal first 149 residues), dimer (Hepatitis B virus, adyw strain); assay: SEC of capsid and dimer after 72 h assembly at 100 mM NaCl, 23° C.; self-association of Cp149 dimers
[3] = target: HBV Cp149-WT (wild type HBV core protein assembly domain, N-terminal first 149 residues), dimer (Hepatitis B virus, adyw strain); assay: SEC of capsid and dimer after 72 h assembly at 100 mM NaCl, 23° C.; mean equilibrium dimer concentration
[4] = target: HBV wild type core protein expressed in Huh7 cells (subtype ayw) (Hepatitis B virus, subtype ayw) (UniProt P03146); assay: cell-based or functional assay
[5] = target: the molecule itself; assay: thermodynamic calculation from SEC, 23° C., 100 mM NaCl; 100 mM NaCl, 23° C.; value in the text, which differs from Table 3
[6] = target: the molecule itself; assay: SEC of assembly reactions, 100 mM NaCl, 72 h, 23° C.; 100 mM NaCl, 72 h, 23° C.; ratio of WT to V124W pseudo-critical concentration
[7] = target: the molecule itself; assay: SEC of capsid and dimer after 72 h assembly at 100 mM NaCl, 23° C.; self-association of Cp149-V124W dimers; 100 mM NaCl, 23° C., SEC after 72 h equilibration; Table 3 value

HBV Cp149-WT (wild type HBV core protein assembly domain, N-terminal first 149 residues), dimer
pseudo-critical concentration [1]: 43.6 µM
ΔGcontact [2]: -2.74 kcal/mol
KD, apparent [3]: 43.3 µM

HBV V124W core protein expressed in Huh7 cells (subtype ayw) (from UniProt P03146 1-183)
dlDNA yield, Southern blot of encapsidated DNA, WT:V124W = 1:1 co-transfection in Huh7 cells [4]: 23 % of WT
rcDNA yield, Southern blot of encapsidated DNA, WT:V124W = 1:1 co-transfection in Huh7 cells [4]: 8 % of WT
ssDNA yield, Southern blot of encapsidated DNA, WT:V124W = 1:1 co-transfection in Huh7 cells [4]: 37 % of WT
total DNA yield, Southern blot of encapsidated DNA, WT:V124W = 1:1 co-transfection in Huh7 cells [4]: 31 % of WT

B1: HBV Cp149-V124W (core protein assembly domain with V124W), dimer (other)
chain: MDIDPYKEFGATVELLSFLPSDFFPSVRDLLDTAAALYRDALESPEHCSPHHTALRQAILCWGDLMTLATWVGTNLEDPASRDLVVSYVNTNVGLKFRQLLWFHISCLTFGRETVLEYLVSFGWWIRTPPAYRPPNAPILSTLPETTVV
notes: also called HBV Cpdominant 1; Cpdominant 1
ΔGcont [5]: -3.73 kcal/mol
fold difference of pseudo-critical concentration against WT [6]: 40 fold
ΔGcontact [7]: -3.84 kcal/mol
